Assay results reported in patent publication US20230051715A1 (MABWELL THERAPEUTICS, published 2023).

T1: human C1s proenzyme (CompTech A103) (human, UniProt P09871 16-688)
T1 construct: also called proenzyme human C1s (native C1s)
T1 sequence (looked up): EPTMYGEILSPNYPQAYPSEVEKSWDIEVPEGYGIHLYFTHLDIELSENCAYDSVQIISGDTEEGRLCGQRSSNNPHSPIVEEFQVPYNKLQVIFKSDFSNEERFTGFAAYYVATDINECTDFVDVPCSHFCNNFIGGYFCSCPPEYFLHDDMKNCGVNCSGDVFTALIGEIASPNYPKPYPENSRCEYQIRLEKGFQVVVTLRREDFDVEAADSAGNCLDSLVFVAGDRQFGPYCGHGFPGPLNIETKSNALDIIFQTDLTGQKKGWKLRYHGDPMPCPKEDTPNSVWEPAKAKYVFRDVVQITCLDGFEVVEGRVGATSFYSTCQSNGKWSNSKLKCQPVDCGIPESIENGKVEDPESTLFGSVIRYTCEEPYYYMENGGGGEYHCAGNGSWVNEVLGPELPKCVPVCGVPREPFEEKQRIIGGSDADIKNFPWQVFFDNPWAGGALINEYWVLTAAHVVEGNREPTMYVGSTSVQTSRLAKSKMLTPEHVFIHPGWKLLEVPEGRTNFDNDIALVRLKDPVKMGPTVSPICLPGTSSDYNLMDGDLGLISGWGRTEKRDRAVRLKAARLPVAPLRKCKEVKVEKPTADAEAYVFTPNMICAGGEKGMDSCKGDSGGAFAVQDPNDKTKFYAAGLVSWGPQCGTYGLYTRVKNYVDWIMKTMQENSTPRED

T2: full-length human C1s (produced in house) (human, UniProt P09871 16-688)
T2 construct: Called full-length; Partly auto-cleaved at R422-I423 on blots; also called HuC1s; Hu C1s
T2 sequence: T1 sequence (looked up)

B1: Anti-C1s antibody 2-7 (antibody, human IgG1, kappa, V domains shown)
VH: EVKLEESGGGLVPPGGSMKLSCVASGFTFSNYFMNWVRQSPEKGLEWVAEIRLKFTNYATHYAESVEGRFTISRDDSKSSVYLQMNNLRAEDTGIYYCTRDYGSRNGYFDYWGQGTTLTVSS
VL: DIVMTQAAPSVPVTPGESVSISCRSSKSLLHSNGNTFLYWFLQRPGQSPQLLIYRMSNLASGVPDRFSGSGSGTAFTLRVSRVEAEDVGIYYCMQHLEYPYTFGGGTKLEIKT
notes: the HC/LC entries may hold it too; also called clone 2-7
B2: Anti-C1s antibody hz2-8 (H1L2 G80A/T82A) (antibody, V domains shown)
VH: QVQLVQSGAEVKKPGASVKVSCKASGFNIKEYYMHWVRQAPEQGLEWMGWIDPENADAIYAQKFQGRVTITADTSTNTAYMELSSLRSEDTAVYYCARSRLFFAYWGQGTLVTVSS
VL: DIQMTQSPKSLSASVGDRVTITCRASQDVRTALDWYQQKPGQSPKLLIYSASYRYSGVPSRFSGSGSGTDFTLTISSLQPEDFATYYCQQQYTTPYTFGQGTKLEIKR
notes: Humanized variant with G80A and T82A in HC CDR2 (already in the entry), human IgG1 / kappa

Key:
[1] = molecular target: T1, human C1s proenzyme (CompTech A103); assay: BLI (Octet RED96e), antibody on AHC biosensor; HuC1s Form: Proenzyme; R^2 0.9994
Method: Bio-Layer Interferometry technology was used for anti-C1s antibody affinity measurement and binding kinetics determinations with OCTET® RED96e system (Sartorius AG). Pre-hydrated Anti-Human IgG Fc Capture (AHC) biosensors were first equilibrated in 1×KB (Kinetic Buffer, 1×PBS pH 7.4+0.02% Tween-20+0.1% BSA) for 120 sec for the first baseline, followed by loading with […] anti-C1s antibody (2-7, FIG. 3A; 2-8, FIG. 3B; hz2-7(H1L2), FIG. 3C; hz2-8(H1L2 G80A/T82A, FIG. 3D) onto AHC biosensors for 240 sec. Then, the second baseline signal was established for 120 sec before association with various concentrations of active human C1s (CompTech A104) for 240-360 sec. At last, analyte was dissociated in 1×KB for 360 sec. Anti-C1s antibodies 2-7 and 2-8 were also analyzed against human C1s proenzyme (CompTech A103) (data not shown). Data analysis was carried out using OCTET® Data Analysis HT Software (Sartorius AG). KD, kₒₙ, koff and R² values were calculated for each antibody and target combination, as summarized in FIG. 3E showing high affinity binding with KD values in the low nanomolar to picomolar range.

[2] = molecular target: T2, full-length human C1s (produced in …); assay: BLI (Octet RED96e), antibody on AHC biosensor; C1s Species: Human; R^2 0.9997
Excerpt: At last, analyte was dissociated in 1×KB for 360 sec. Data analysis was done using OCTET® Data Analysis HT Software (Sartorius AG).

Kd [1] | koff [1] | kon [1] | Kd [2] | koff [2] | kon [2] | Binder
0.14 nM | 4.8e-05 s⁻¹ | 350000 M⁻¹ s⁻¹ |  |  |  | B1
 |  |  | 0.7 nM | 0.0003 s⁻¹ | 430000 M⁻¹ s⁻¹ | B2
